Literature values in article PMC7531836.
pKd: −log10 of the molar value.

Target: C5 (Homo sapiens) (UniProt P01031)

pKd: 9.92
Substance: eculizumab
